The record followed here is article PMC5895659, “Mechanistic and Structural Insights Into the Unique TetR-Dependent Regulation of a Drug Efflux Pump in Mycobacterium abscessus” (Frontiers in Microbiology, 2018).

Series [1] deals with the molecule itself. Description: SEC; ENrich SEC 650 column, 50 mM Tris-HCl pH 8, 200 mM NaCl, 5 mM beta-mercaptoethanol, 0.4 mL/min, 4 °C; MAB_4384 at 3.9 mg/mL; apparent mass from a calibration curve (42.6 kDa against 24.7 kDa theoretical). A general note: In gel filtration, larger molecules generally elute earlier.
The target of series [2] is MAB_4384 (TetR regulator) (Mycobacterium abscessus subsp. …, UniProt B1MJU8 1-221). Put plainly: competition; excess non-related labeled probe; shift of Probe 1 maintained; EMSA: 280 nM fluorescein probe, 1X TAE, 1 h, room temperature, 6% native PAGE in 1X TAE; SEC: 50 mM Tris-HCl pH 8, 200 mM NaCl, 5 mM beta-mercaptoethanol, 4 C. The settings on record: protein: recombinant; tags: Trx-His6 tag removed by TEV; residual Gly at N-terminus; chain copies: 4; label: 5' fluorescein; blunt. For orientation: Mobility shift assays separate free from complexed probe on a gel.

Series [3] concerns the target T1, MAB_4384 (TetR regulator) (Mycobacterium abscessus subsp. …, UniProt B1MJU8 1-221). Put plainly: EMSA; comparable to Probe 1; EMSA: 280 nM fluorescein probe, 1X TAE, 1 h, room temperature, 6% native PAGE in 1X TAE; SEC: 50 mM Tris-HCl pH 8, 200 mM NaCl, 5 mM beta-mercaptoethanol, 4 C. The settings on record: protein: recombinant; tags: Trx-His6 tag removed by TEV; residual Gly at N-terminus; chain copies: 4; label: 5' fluorescein; blunt.

Series [4] concerns the target T1, MAB_4384 (TetR regulator). Put plainly: EMSA; 280 nM probe; EMSA: 280 nM fluorescein probe, 1X TAE, 1 h, room temperature, 6% native PAGE in 1X TAE; SEC: 50 mM Tris-HCl pH 8, 200 mM NaCl, 5 mM beta-mercaptoethanol, 4 C. The settings on record: protein: recombinant; tags: Trx-His6 tag removed by TEV; residual Gly at N-terminus; chain copies: 4; label: 5' fluorescein; blunt.

Another series concerns the target T2, MAB_4384 (D14N/F57L) (Mycobacterium abscessus subsp. …, UniProt B1MJU8 1-221, D14N;F57L).
T2 sequence: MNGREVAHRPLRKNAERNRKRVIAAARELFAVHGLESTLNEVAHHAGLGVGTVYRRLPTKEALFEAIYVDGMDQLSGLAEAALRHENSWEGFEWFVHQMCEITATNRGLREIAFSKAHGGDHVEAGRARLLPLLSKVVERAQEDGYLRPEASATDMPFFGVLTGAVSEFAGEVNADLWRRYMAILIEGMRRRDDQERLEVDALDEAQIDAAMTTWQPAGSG
Put plainly: EMSA; fully abrogated; EMSA: 280 nM fluorescein probe, 1X TAE, 1 h, room temperature, 6% native PAGE in 1X TAE; SEC: 50 mM Tris-HCl pH 8, 200 mM NaCl, 5 mM beta-mercaptoethanol, 4 C. The settings on record: protein: recombinant; tags: Trx-His6 tag removed by TEV; residual Gly at N-terminus; chain copies: 2; label: 5' fluorescein; blunt.

Series [5] addresses T1, MAB_4384 (TetR regulator). Description: competition; cold probe vs 280 nM labeled Probe 1; dose-dependent decrease; EMSA: 280 nM fluorescein probe, 1X TAE, 1 h, room temperature, 6% native PAGE in 1X TAE; SEC: 50 mM Tris-HCl pH 8, 200 mM NaCl, 5 mM beta-mercaptoethanol, 4 C. The settings on record: protein: recombinant; tags: Trx-His6 tag removed by TEV; residual Gly at N-terminus; chain copies: 4; blunt.

B1: MAB_4384 TetR regulator (natural protein)
chain: MNGREVAHRPLRKDAERNRKRVIAAARELFAVHGLESTLNEVAHHAGLGVGTVYRRFPTKEALFEAIYVDGMDQLSGLAEAALRHENSWEGFEWFVHQMCEITATNRGLREIAFSKAHGGDHVEAGRARLLPLLSKVVERAQEDGYLRPEASATDMPFFGVLTGAVSEFAGEVNADLWRRYMAILIEGMRRRDDQERLEVDALDEAQIDAAMTTWQPAGSG
notes: MAB_4384, TetR family transcriptional repressor of Mycobacterium abscessus subsp. abscessus CIP104536T; amplified from genomic DNA with the MAB_4384_full primers; theoretical mass 24.7 kDa; the account of the structure (chain A modelled Asp14 to Thr213, first thirteen and last eight residues not visible) implies residues 1-221; also called wild-type MAB_4384; source: E. coli BL21 Rosetta 2 (DE3), …
Regarding B1, the “stoichiometry N” value in series [1] is 2.

B2: Non-specific probe (dsDNA)
DNA 1: ATGGAACTTGAAGGACTGACCGCGTTG
DNA 2: CAACGCGGTCAGTCCTTCAAGTTCCAT
B2: in series [2], the binding result is listed as “no binding”.

B3: Probe 3 (flanks randomly changed) (dsDNA)
DNA 1: TCTGGATAAGCAAGTGGATTGACTCTATCCACTTCCGAAACCGAC
DNA 2: GTCGGTTTCGGAAGTGGATAGAGTCAATCCACTTGCTTATCCAGA
On to B3, for which, in series [3], the binding result is “binds”.

B4: Probe 1 (IRS5/L5 operator) (dsDNA)
DNA 1: CACTTCGCCATAAGTGGATTGACTCTATCCACTTTTACCCATAGA
DNA 2: TCTATGGGTAAAAGTGGATAGAGTCAATCCACTTATGGCGAAGTG
As for B4, the binding result in series [4] is listed as “binds”; with MAB_4384 (D14N/F57L), “no binding”.

B5: Probe 1 unlabeled (dsDNA)
DNA 1: CACTTCGCCATAAGTGGATTGACTCTATCCACTTTTACCCATAGA
DNA 2: TCTATGGGTAAAAGTGGATAGAGTCAATCCACTTATGGCGAAGTG
As for B5, the binding result in series [5] is listed as “binds”.

By stoichiometry N is commonly meant the number of molecules, sites or subunits per partner or assembly.
